The results in this text go back to article PMC4944209 (Journal of structural biology, 2016).

This data set deals with the molecule itself. Nature of the data set: cryo-EM structure.

B1: OmpF, β-barrel channel protein from the outer membrane of E. coli (natural protein, UniProt P02931 23-362, looked up)
chain: AEIYNKDGNKVDLYGKAVGLHYFSKGNGENSYGGNGDMTYARLGFKGETQINSDLTGYGQWEYNFQGNNSEGADAQTGNKTRLAFAGLKYADVGSFDYGRNYGVVYDALGYTDMLPEFGGDTAYSDDFFVGRVGGVATYRNSNFFGLVDGLNFAVQYLGKNERDTARRSNGDGVGGSISYEYEGFGIVGAYGAADRTNLQEAQPLGNGKKAEQWATGLKYDANNIYLAANYGETRNATPITNKFTNTSGFANKTQDVLLVAQYQFDFGLRPSIAYTKSKAKDVEGIGDVDLVNYFEVGATYYFNKNMSTYVDYIINQIDSDNKLGVGSDDTVAVGIVYQF
On to B1, for which the “stoichiometry N” value is 3.
